Measured values as given in publication PMC7077502.

Target: His6-eIF4A1 (UniProt P60843 1-406)
Assay: fluorescence polarization

His6-eIF4A1, sequence (P60843 whole entry): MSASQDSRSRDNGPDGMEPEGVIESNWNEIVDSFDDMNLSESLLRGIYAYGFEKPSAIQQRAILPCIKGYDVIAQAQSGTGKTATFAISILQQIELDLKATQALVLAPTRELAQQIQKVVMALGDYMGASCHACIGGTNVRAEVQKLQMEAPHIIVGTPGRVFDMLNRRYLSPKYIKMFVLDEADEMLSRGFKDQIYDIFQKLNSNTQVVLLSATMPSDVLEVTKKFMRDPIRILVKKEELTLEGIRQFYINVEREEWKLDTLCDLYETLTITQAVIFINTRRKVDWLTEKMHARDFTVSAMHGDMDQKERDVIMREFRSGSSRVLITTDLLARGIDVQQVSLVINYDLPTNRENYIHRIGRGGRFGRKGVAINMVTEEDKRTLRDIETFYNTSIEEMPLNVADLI

AGAGAGAGAGAGAGAG (ssRNA) [r(AG)8]: binds.
